Source: patent US20140004580A1, “MODIFIED PHOTOSYNTHETIC MICROORGANISMS FOR PRODUCING LIPIDS” (Matrix Genetics, LLC, priority 2010, published 2014)

Legend:
Format in all cases: biochemical, Synechococcus elongatus PCC7942
[1] = target: h6-0489 (histidine-tagged orf0489 aldehyde dehydrogenase) (Synechococcus elongatus, UniProt Q31QZ8); experiment: Enzymatic characterization of h6-0489 with fatty aldehydes of varying chain length (NADH production at 340 nm)
Protocol: (§1) The protein eluted off of SEC as a single monodisperse peak. The enzymatic characteristics of purified protein were then measured in vitro using fatty aldehydes of varying chain length (4-16) as substrate. In this assay, h6-0489 was incubated with 150 mM NaCl, 50 mM Tris, pH 7.5, 0.05% IGEPAL, 1 mM NAD+ and varying concentrations of the fatty aldehyde substrate being tested. The reaction was carried out in a cuvette with a 1 cm pathlength, and the progress was assessed by measuring the production of NADH at 340 nm using a SpectraMax M5 spectrophotometer. Measurements were taken every second for 2-5 minutes, and the initial velocities of each reaction were determined in the linear range. The A340 was converted into amount of NADH formed using the molar extinction coefficient for NADH (6200 M^−1 cm^−1). The Michaelis constants Km and Vmax were determined by fitting the data using non-linear progression in Prism to the equation Y=(Vmax*X)/(Km+X), where X=substrate concentration and Y=velocity. Kcat was determined from the equation Vmax=Kcat*Et, where Et=the concentration of h6-0489. Data are presented in Table C as averages of at least three different experiments, with errors presented as standard deviation.

purified h6-orf0489 = experiment: orf0489 aldehyde dehydrogenase activity assay with nonyl-aldehyde (NAD(P)H production at 340 nm); conditions: nonyl-aldehyde 1 mM; h6-orf0489 0.3, 1.5 or 6 μM; NAD+ or NAD(P)+ 1 mM; 30 minutes
Protocol: The reaction was started by mixing together a fatty aldehyde substrate, purified h6-orf0489 and NAD(P)+. The progress of the reaction was assessed by measuring the production of NAD(P)H at 340 nm using the SpectraMax M5. […] Nonyl-aldehyde and either NAD+ or NAD(P)+ were used at 1 mM. Measurements were taken every 30 seconds for 30 minutes.
To directly test whether orf0489 is an aldehyde dehydrogenase, a histidine-tagged version of this protein (h6-orf0489) was overexpressed in E. coli and purified using metal affinity chromatography. The purified protein was then employed in an in vitro reaction using a fatty aldehyde as a substrate.
The reaction was started by mixing together a fatty aldehyde substrate (nonyl-aldehyde at 1 mM), various concentrations of purified h6-orf0489 (0.3, 1.5 or 6 μM final concentration), and NAD+ or NAD(P)+ at 1 mM. The progress of the reaction was assessed by measuring the production of NAD(P)H at 340 nm using the SpectraMax M5; measurements were taken every 30 seconds for 30 minutes.

[2] = substrate: CCCC=O; experiment: Enzymatic characterization of h6-0489 with fatty aldehydes of varying chain length (NADH production at 340 nm); conditions: other: aldehyde as substrate, 1 mM NAD+, pH 7.5, average of at least three experiments
Protocol: as §1

[3] = substrate: CCCCCC=O; experiment: as above; conditions: other: aldehyde as substrate, 1 mM NAD+, pH 7.5, average of at least three experiments
Protocol: as §1

[4] = substrate: CCCCCCCC=O; experiment: as above; conditions: other: aldehyde as substrate, 1 mM NAD+, pH 7.5, average of at least three experiments
Protocol: as §1

[5] = substrate: CCCCCCCCCC=O; experiment: as above; conditions: other: aldehyde as substrate, 1 mM NAD+, pH 7.5, average of at least three experiments
Protocol: as §1

[6] = substrate: CCCCCCCCCCCC=O; experiment: as above; conditions: other: aldehyde as substrate, 1 mM NAD+, pH 7.5, average of at least three experiments
Protocol: as §1

For hexadecenal, the “kcat (AVE)” value ([1]; aldehyde as substrate, 1 mM NAD+, 150 mM NaCl, 50 mM Tris pH 7.5, 0.05% IGEPAL, average of at least three experiments) was 10.8 s⁻¹, the Km ([1]; aldehyde as substrate, 1 mM NAD+, pH 7.5, average of at least three experiments, read-out: (μM) (AVE) [Km]) was 38.1 µM and the “oxidation of the aldehyde to a free fatty acid by h6-0489 in vitro” value ([1]; in vitro) was “able to oxidize hexadecenal to a free fatty acid”.

`CCCCCCCCC=O` [nonyl-aldehyde] was tested, and the “utilization as substrate (increased NAD(P)H production relative to controls)” value (purified h6-orf0489) was “utilizes nonyl-aldehyde as a substrate”.

B1: h6-0489 (histidine-tagged orf0489 aldehyde dehydrogenase) (Synechococcus elongatus PCC 7942 = FACHB-805) (protein)
chain: MTAVVLPAAAETLAALQATFDRGDTRTLAFRLARLQDLAKLVADNEAELLQALASDLRKPALEAYASEIYFVRDQIKLTCKHLRRWMQPEKQSISLMQQPGQAYRQAEPLGVVLIIGPWNYPFQLLITPLIGAIAAGNCAVLKPSELAPATSSLIQRLISDRFDPDYIRVLEGDASVSQALITQPFDHIFFTGGTAIGRKVMAAAAENLTPVTLELGGKSPCIVDTDIDLDVAARRIAWGKFFNAGQTCIAPDYLLVQRTVAEPFIEALIDNIQQFYGEDPQQSADYARIVSDRHWQRLNSLLVDGTIRHGGQVDRSDRYIAPTLITDVNWRDPILQEEIFGPLLPILIYDQLDEAIAQIRAQPKPLALYLFSRDRQVQERVLAETSAGSVCLNDTILQVGVPDAAFGGVGPSGMGGYHGKASFETFSHYKLVLKRPFWLDLALRYPPYGDKINLFRKL
B1 was tested, and the Km [2] was 189.4 µM, the kcat [2] was 7.65 s⁻¹ and the kcat/Km [2] was 40000 M⁻¹ s⁻¹. The Km [3] was 19.3 µM, the kcat [3] was 8.51 s⁻¹ and the kcat/Km [3] was 442000 M⁻¹ s⁻¹. It also gave a Km [4] of 15.4 µM, a kcat [4] of 13.5 s⁻¹ and a kcat/Km [4] of 875000 M⁻¹ s⁻¹. The Km [5] was 7.6 µM, the kcat [5] was 12.1 s⁻¹ and the kcat/Km [5] was 1.59e+06 M⁻¹ s⁻¹. It also gave a Km [6] of 11.4 µM, a kcat [6] of 9.29 s⁻¹ and a kcat/Km [6] of 818000 M⁻¹ s⁻¹.
